From PMC7862291 (2021)

B1: wild type human KMO (Hs-KMO), NanoBRET constructs [human] / itself (parent complex)
chain: MDSSVIQRKKVAVIGGGLVGSLQACFLAKRNFQIDVYEAREDTRVATFTRGRSINLALSHRGRQALKAVGLEDQIVSQGIPMRARMIHSLSGKKSAIPYGTKSQYILSVSRENLNKDLLTAAEKYPNVKMHFNHRLLKCNPEEGMITVLGSDKVPKDVTCDLIVGCDGAYSTVRSHLMKKPRFDYSQQYIPHGYMELTIPPKNGDYAMEPNYLHIWPRNTFMMIALPNMNKSFTCTLFMPFEEFEKLLTSNDVVDFFQKYFPDAIPLIGEKLLVQDFFLLPAQPMISVKCSSFHFKSHCVLLGDAAHAIVPFFGQGMNAGFEDCLVFDELMDKFSNDLSLCLPVFSRLRIPDDHAISDLSMYNYIEMRAHVNSSWFIFQKNMERFLHAIMPSTFIPLYTMVTFSRIRYHEAVQRWHWQKKVINKGLFFLGSLIAISSTYLLIHYMSPRSFLRLRRPWNWIAHFRNTTCFPAKAVDSLEQISNLISR

Variants of: B1
Assay: NanoBRET; HEK293T cells; + ligand (TMR ligand); n = 6; read off a plot

Row | Variant | response
1 | chain 1 D184A, chain 1 Y185P, chain 1 Q187A | ~78 mBU
